doi:10.1101/2021.03.31.437858

Tests used:
Experiment in all cases: native gel or EMSA
[1] = biological target: complex V (CV) (bovine (endogenous in bovine heart mitochondria))
[2] = biological target: cytochrome c oxidase (COX), monomeric (bovine (endogenous in bovine heart mitochondria)) (UniProt P00429)
[3] = biological target: Apoptosis Inducing Factor 1 (AIFM1) (bovine (endogenous in bovine heart mitochondria))
[4] = biological target: complex III (CIII) (bovine (endogenous in bovine heart mitochondria))

Chain of UniProt P00429 (P00429 whole entry, looked up): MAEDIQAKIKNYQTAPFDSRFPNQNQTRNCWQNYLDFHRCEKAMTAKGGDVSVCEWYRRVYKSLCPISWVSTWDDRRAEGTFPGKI

Q: How did the stoichiometry N [1] turn out when complex V (CV) was run?
A: The stoichiometry N was 2.

Q: Which percent of monomeric COX engaged in the complex [2] does the source give for “Apoptosis Inducing Factor 1 (AIFM1) (natural protein)” here?
A: Its percent of monomeric COX engaged in the complex is 10%.

Q: And the stoichiometry N (AIFM1 per COX monomer) [2]?
A: The stoichiometry N (AIFM1 per COX monomer) was 2.

Q: What about the stoichiometry N [3] of the same substance?
A: Its stoichiometry N is 2.

Q: Which stoichiometry N [4] does the source give for complex III (CIII) here?
A: Its stoichiometry N is 2.
